Reference: patent publication US20200157212A1 (Pfizer, published 2020)

T1: Human ROBO2 overexpressed on HEK293 cells (human, UniProt Q9HCK4 22-1378)
T1 construct: also called ROBO2 cells; native ROBO2
T1 sequence: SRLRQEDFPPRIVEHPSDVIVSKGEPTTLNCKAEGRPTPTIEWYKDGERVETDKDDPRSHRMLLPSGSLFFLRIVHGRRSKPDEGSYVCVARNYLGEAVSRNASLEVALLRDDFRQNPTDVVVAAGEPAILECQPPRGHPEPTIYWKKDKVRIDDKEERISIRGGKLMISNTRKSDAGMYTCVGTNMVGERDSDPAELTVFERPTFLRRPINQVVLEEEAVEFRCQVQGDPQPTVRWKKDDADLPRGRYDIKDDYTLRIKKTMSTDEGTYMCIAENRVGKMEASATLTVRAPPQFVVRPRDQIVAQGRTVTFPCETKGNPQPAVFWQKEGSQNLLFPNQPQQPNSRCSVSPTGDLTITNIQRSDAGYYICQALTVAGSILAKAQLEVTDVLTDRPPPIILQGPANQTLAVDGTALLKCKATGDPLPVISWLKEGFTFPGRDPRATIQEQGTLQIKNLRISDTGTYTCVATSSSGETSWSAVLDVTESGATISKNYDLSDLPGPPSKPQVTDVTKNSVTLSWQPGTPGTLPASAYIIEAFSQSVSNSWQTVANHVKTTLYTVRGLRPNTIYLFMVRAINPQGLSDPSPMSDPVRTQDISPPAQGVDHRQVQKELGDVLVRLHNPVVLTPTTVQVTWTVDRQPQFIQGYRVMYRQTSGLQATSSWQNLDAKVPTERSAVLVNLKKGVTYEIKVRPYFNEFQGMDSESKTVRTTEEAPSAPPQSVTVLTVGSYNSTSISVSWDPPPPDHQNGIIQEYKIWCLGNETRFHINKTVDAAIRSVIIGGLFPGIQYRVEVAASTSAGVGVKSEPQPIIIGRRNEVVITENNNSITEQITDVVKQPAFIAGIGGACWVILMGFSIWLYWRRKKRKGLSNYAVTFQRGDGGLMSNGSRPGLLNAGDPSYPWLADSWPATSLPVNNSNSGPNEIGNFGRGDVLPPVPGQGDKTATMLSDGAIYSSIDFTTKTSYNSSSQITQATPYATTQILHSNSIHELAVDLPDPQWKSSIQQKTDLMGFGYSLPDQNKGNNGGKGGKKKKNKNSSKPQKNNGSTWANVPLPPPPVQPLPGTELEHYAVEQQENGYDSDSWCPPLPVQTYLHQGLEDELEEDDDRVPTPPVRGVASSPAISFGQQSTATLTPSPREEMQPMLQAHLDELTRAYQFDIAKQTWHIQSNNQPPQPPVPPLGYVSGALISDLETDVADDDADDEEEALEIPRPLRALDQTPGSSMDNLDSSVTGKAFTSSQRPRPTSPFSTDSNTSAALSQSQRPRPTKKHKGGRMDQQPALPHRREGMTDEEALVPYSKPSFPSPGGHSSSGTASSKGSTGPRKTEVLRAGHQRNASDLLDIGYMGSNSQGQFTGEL

T2: Human ROBO2 Ig1-Ig2-His (human, UniProt Q9HCK4 31-220)
T2 construct: the His tag is named only in the SPR paragraphs; the Octet and ELISA paragraphs print 'ROBO2 Ig1-Ig2' without a tag; also called ROBO2 Ig1-2; Human ROBO2 Ig 1,2
T2 sequence: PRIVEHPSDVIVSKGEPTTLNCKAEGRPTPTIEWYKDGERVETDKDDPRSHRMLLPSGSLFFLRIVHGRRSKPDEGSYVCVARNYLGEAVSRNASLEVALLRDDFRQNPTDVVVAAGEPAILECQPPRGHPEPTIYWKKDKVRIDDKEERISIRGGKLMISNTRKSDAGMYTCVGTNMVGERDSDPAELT


How the values were obtained:
[1] = target: T1, Human ROBO2 overexpressed on HEK293 …; assay: flow cytometry, HEK293 cells overexpressing human ROBO2
Procedure: Binding of the antibodies was detected using a secondary fluorochrome conjugated anti-human IgG F(ab′)₂ antibody and samples were analyzed on a Fortessa cytometer (BD Biosciences). The fold ROBO2 selectivity was calculated as the geometric mean fluorescence intensity (Geo MFI) with ROBO2 cells/Geo MFI with ROBO1 cells. A fold change higher than 3 was considered to be ROBO2 specific (Table 2, Fold Selectivity). Some affinity matured clones had increased ROBO1 reactivity, for example Abcs 55, CTI-R2-10 and CTIR2-13.
Based upon several criteria, Abcs25 and Abcs35 were selected for further characterization. Using flow cytometry, improvement in the binding EC₅₀ to human ROBO2 relative to the parental 93H2 was evaluated. Starting at 6.7 nM, 11-point, 3-fold dilution series were made for each antibody and used to stain HEK293 overexpressing human ROBO2 as described above for the ROBO2 fold selectivity (Example 2). […] In addition to measuring improved binding to human ROBO2, it was important to ensure that high affinity binding to both cynomolgus monkey ROBO2 and rat ROBO2 was maintained. Using HEK293 cells overexpressing either cynomolgus monkey ROBO2 or rat ROBO2, the relative dose-dependent binding of 93H2, Abcs25 and Abcs35 was evaluated as described above. High affinity binding to both cynomolgus monkey and rat ROBO2 was maintained in Abcs25 and Abcs35 (Table 4). […] Briefly, Abcs35 was immobilized to 300 resonance units (RU) on a CM5 chip. Association of ROBO2 Ig1-Ig2-His (ROBO2) was measured over 5 minutes and dissociation was followed for a period of 10 minutes.

Human ROBO2 Ig1-Ig2-His = target: T2, Human ROBO2 Ig1-Ig2-His; assay: SPR, antibody on CM5 chip, ROBO2 Ig1-Ig2-His

Row | EC50 [1] [pM] | Binder | Kd (Human ROBO2 Ig1-Ig2-His) [pM]
1 | 133 | 93H2 (antibody, human IgG1, kappa, V domains shown, also called parental 93H2; 93H2 mAb) VH: EVQLVQSGAEVKKPGASVKVSCKASGYTFTGYYMHWVRQAPGQGLEWMGWINPNSGATNFPQKFQGRVTMTRDTSITTAYMDLSRLRSDDTAVYYCARESGDDAFDIWGQGTMVTVSS VL: not shown | –
2 | – | Abcs35-J (antibody, human IgG1, kappa, germlined variant of Abcs35; also called ABCS-J) heavy: EVQLVQSGAEVKKPGASVKVSCKASGYTFTGYYMHWVRQAPGQGLEWMGWINPKNGDTEFPQKFQGRVTMTRDTSITTAYMELSRLRSDDTAVYYCARESGDDAFDIWGQGTMVTVSSASTKGPSVFPLAPSSKSTSGGTAALGCLVKDYFPEPVTVSWNSGALTSGVHTFPAVLQSSGLYSLSSVVTVPSSSLGTQTYICNVNHKPSNTKVDKKVEPKSCDKTHTCPPCPAPEAAGAPSVFLFPPKPKDTLMISRTPEVTCVVVDVSHEDPEVKFNWYVDGVEVHNAKTKPREEQYNSTYRVVSVLTVLHQDWLNGKEYKCKVSNKALPAPIEKTISKAKGQPREPQVYTLPPSREEMTKNQVSLTCLVKGFYPSDIAVEWESNGQPENNYKTTPPVLDSDGSFFLYSKLTVDKSRWQQGNVFSCSVMHEALHNHYTQKSLSLSPGK light: not shown | 93.9
3 | 56 | Abcs25 (antibody, human IgG1, kappa, V domains shown, chain-shuffled IgG) VH: EVQLVQSGAEVKKPGASVKVSCKASGYTFTGYYMHWVRQAPGQGLEWMGWINPKDGDTEFPQKFQGRVTMTRDTSITTAYMDLSRLRSDDTAVYYCARESGDDAFDIWGQGTMVTVSS VL: DIVMTQSPSSLSASVGDRVTITCRASQSISSYLNWYQQKPGKAPKLLIYAASSLQSGVPSRFSGSGSGTDFTLTISSLQPEDFATYYCQQSVGLSFGGGTKVEIKR | –

Row | Binder | EC50 [1] [pM] | Kd (Human ROBO2 Ig1-Ig2-His) [pM]
4 | Abcs35 (antibody, human IgG1, kappa, fully human IgG1; VH of Ab96 with VL of Ab123) heavy: EVQLVQSGAEVKKPGASVKVSCKASGYTFTGYYMHWVRQAPGQGLEWMGWINPKNGDTEFPQKFQGRVTMTRDTSITTAYMDLSRLRSDDTAVYYCARESGDDAFDIWGQGTMVTVSSASTKGPSVFPLAPSSKSTSGGTAALGCLVKDYFPEPVTVSWNSGALTSGVHTFPAVLQSSGLYSLSSVVTVPSSSLGTQTYICNVNHKPSNTKVDKKVEPKSCDKTHTCPPCPAPEAAGAPSVFLFPPKPKDTLMISRTPEVTCVVVDVSHEDPEVKFNWYVDGVEVHNAKTKPREEQYNSTYRVVSVLTVLHQDWLNGKEYKCKVSNKALPAPIEKTISKAKGQPREPQVYTLPPSREEMTKNQVSLTCLVKGFYPSDIAVEWESNGQPENNYKTTPPVLDSDGSFFLYSKLTVDKSRWQQGNVFSCSVMHEALHNHYTQKSLSLSPGK light: DIVMTQSPSSLSASVGDRVTITCRASQSISSYLNWYQQKPGKAPKLLIYAASSLQSGVPSRFSGSGSGTDFTLTISSLQPEDFATYYCQQSVGLFFGGGTKVEIKRTVAAPSVFIFPPSDEQLKSGTASVVCLLNNFYPREAKVQWKVDNALQSGNSQESVTEQDSKDSTYSLSSTLTLSKADYEKHKVYACEVTHQGLSSPVTKSFNRGEC | 55 | 85.7
